Results taken from article PMC9061753, “Mre11-Rad50 oligomerization promotes DNA double-strand break repair” (Nature Communications, 2022).

Experiments:
[1] = target: T1, Mre11-Rad50 (MRwt) (S. cerevisiae, UniProt P32829;P12753 1-692;1-1312); assay: EMSA; ATPgS, 5 mM Mg2+, 30 mM NaCl; mean of the 2 visible of 3 replicates (6.248, 7.406); apparent; Oligo EMSA: 25 mM Tris acetate pH 7.5, 1 mM DTT, 0.25 mg/ml BSA, 5 mM Mg acetate, 1 mM ATPgS, 30 mM NaCl, 30 C 15 min, 100 nM bp DNA; plasmid EMSA: 80 mM KCl, plus 1 mM MnCl2, 30 C 1 h; mass photometry 25 mM KCl; conditions: protein: recombinant; tags: Mre11-6xHis; Rad50 untagged; chain copies: 2;2; label: 3'-32P on BIO100C; blunt before 3' labeling
[2] = target: T1, Mre11-Rad50 (MRwt); assay: EMSA; ATPgS, 5 mM Mg2+, 30 mM NaCl; mean of the 2 visible of 3 replicates (4.948, 4.099); apparent; Oligo EMSA: 25 mM Tris acetate pH 7.5, 1 mM DTT, 0.25 mg/ml BSA, 5 mM Mg acetate, 1 mM ATPgS, 30 mM NaCl, 30 C 15 min, 100 nM bp DNA; plasmid EMSA: 80 mM KCl, plus 1 mM MnCl2, 30 C 1 h; mass photometry 25 mM KCl; conditions: protein: recombinant; tags: Mre11-6xHis; Rad50 untagged; chain copies: 2;2; label: 3'-32P on top strand; 1-nt 5' overhangs as printed

T1 sequence (P32829 whole entry, chain 1 of 2): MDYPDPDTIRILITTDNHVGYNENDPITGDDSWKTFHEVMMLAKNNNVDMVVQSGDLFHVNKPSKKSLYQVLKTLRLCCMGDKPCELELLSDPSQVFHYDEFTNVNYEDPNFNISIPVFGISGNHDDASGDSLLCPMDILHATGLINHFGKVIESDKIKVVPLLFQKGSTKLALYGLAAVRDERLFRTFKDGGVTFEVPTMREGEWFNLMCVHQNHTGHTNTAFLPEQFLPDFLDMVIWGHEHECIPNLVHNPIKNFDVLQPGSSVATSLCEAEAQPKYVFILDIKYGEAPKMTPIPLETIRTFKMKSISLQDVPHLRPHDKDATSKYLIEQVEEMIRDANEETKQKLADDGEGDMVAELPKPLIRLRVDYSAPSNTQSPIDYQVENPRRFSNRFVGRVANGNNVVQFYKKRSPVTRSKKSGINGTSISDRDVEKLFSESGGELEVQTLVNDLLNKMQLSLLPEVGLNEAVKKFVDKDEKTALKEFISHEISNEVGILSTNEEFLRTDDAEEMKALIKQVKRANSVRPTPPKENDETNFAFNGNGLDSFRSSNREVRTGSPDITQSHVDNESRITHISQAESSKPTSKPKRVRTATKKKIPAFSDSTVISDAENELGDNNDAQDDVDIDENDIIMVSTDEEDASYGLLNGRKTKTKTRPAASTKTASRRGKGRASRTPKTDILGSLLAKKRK
T1 sequence (P12753 whole entry, chain 2 of 2): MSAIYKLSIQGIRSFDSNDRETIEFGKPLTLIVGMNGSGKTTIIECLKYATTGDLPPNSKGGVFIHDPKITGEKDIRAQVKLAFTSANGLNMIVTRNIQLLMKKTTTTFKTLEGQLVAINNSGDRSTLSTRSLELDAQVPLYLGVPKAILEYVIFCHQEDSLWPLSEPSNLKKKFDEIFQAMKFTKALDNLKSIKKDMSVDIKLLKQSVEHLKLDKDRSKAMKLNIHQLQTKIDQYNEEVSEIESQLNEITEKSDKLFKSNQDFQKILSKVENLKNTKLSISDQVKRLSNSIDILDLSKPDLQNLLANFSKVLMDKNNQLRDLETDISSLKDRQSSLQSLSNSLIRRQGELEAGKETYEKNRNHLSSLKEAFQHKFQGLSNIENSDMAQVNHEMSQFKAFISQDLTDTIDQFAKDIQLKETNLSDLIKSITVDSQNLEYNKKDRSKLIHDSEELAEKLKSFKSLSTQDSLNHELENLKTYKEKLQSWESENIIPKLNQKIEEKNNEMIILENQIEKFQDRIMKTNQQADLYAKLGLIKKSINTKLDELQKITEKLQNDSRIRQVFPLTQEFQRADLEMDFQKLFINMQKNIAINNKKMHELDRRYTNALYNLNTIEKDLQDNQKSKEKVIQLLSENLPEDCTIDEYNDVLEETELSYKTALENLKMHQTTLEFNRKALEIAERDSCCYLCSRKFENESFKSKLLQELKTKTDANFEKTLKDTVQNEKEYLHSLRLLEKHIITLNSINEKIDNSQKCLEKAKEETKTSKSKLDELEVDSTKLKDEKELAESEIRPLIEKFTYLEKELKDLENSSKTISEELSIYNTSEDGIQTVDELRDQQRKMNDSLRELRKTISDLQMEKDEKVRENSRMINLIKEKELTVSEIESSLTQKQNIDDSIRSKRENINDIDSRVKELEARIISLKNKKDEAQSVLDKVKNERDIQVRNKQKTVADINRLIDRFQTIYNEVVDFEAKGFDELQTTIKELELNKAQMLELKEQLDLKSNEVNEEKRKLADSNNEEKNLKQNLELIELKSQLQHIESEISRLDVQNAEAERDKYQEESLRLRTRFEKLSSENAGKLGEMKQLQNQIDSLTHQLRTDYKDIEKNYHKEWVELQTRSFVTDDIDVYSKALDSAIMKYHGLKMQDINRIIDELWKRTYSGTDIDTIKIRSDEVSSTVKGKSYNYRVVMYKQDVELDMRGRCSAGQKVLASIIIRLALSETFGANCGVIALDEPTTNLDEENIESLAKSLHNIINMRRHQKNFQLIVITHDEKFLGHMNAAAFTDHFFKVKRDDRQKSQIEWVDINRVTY

B1: 100 bp EMSA (BIO100C/BIO100) (dsDNA)
DNA 1: GATGCAGGAGGCTGCTACGACCATGGCAGAAGATTATGAGGTGGAGTACGCGCCCGGGGAGCCCAAGGGCACGCCCTGGCACCCGCACCGCGGCACTTAC
DNA 2: GTAAGTGCCGCGGTGCGGGTGCCAGGGCGTGCCCTTGGGCTCCCCGGGCGCGTACTCCACCTCATAATCTTCTGCCATGGTCGTAGCAGCCTCCTGCATC
modifications: biotin position marked in table
B1 showed a Kd [1] of about 6.83 nM.

B2: 197 bp EMSA (197mer) (dsDNA)
DNA 1: GCTTCGTATGTTTCTCCTGCTTATCACCTTCTTGAAGGCTTCCCATTCATTCAGGAACCGCCTTCTGGTGATTTGCAAGAACGCGTACTTATTCGCCACCATGATTATGACCAGTGTTTCCAGTCCGTTCAGTTGTTGCAGTGGAATAGTCAGGTTAAATTTAATGTGACCGTTTATCGCAATCTGCCGACCACTCG
DNA 2: GCGAGTGGTCGGCAGATTGCGATAAACGGTCACATTAAATTTAACCTGACTATTCCACTGCAACAACTGAACGGACTGGAAACACTGGTCATAATCATGGTGGCGAATAAGTACGCGTTCTTGCAAATCACCAGAAGGCGGTTCCTGAATGAATGGGAAGCCTTCAAGAAGGTGATAAGCAGGAGAAACATACGAAG
In the case of B2, the Kd [2] is reported as about 4.52 nM.
